Experimental data published in publication PMC5667506, “Potent and selective inhibition of SH3 domains with dirhodium metalloinhibitors” (Chemical Science, 2015).
Rh2(OAc)3 = dirhodium(II) triacetate, bound to the side-chain carboxylate

Experiments:
Conditions in all cases: read-out: affinity
Lyn SH3 H78A mutant = target: T1, Lyn SH3 H78A mutant (Homo sapiens, UniProt P07948, H78A); test: Binding to Lyn SH3 H78A mutant
T1 construct: The lyn SH3 domain was amplified by PCR using Phusion DNA polymerase; GST (N, cleaved yes); made in house; host or cells: E. coli BL21 (DE3)
Procedure: (§1) The remarkable 6 nM affinity, far stronger than that of any reported non-protein ligand for SH3 domains, led us to study the structural basis of the observed affinity. […] The H78A and H96A double mutant binds much more weakly (>5 μM). […] That the majority of the stabilization energy comes from the first histidine coordination is consistent with the negative cooperativity generally seen for axial coordination to rhodium(II): a second coordination in solution is roughly two orders of magnitude less favorable.[40]–[43]
(§2) Abl SH3 domain preparation. The abl SH3 domain was amplified by PCR using Phusion DNA polymerase (Finnzymes). The
(§3) reactions were performed following manufacture's protocol with Phusion HF buffer and 5% DMSO. Primers were designed as
(§4) follows: 5'-[…]-3' (BamHI site underlined) and a reverse primer, 5'-
(§5) -3' (EcoRI site underlined). The resultant product was digested with
(§6) BamHI and EcoRI and subcloned into BamHI-EcoRI sites of pGex-KTO. Confirmed PCR fidelity by sequencing.
(§7) Hck SH3 domain preparation. The hck SH3 domain was amplified by PCR using Phusion DNA polymerase (Finnzymes). The
(§8) Lyn SH3 domain preparation. The lyn SH3 domain was amplified by PCR using Phusion DNA polymerase (Finnzymes). The […]
(§9) assessed by SDS-PAGE using 12% Bis-Tris gels (Invitrogen). […]
(§10) concentrated, and aliquoted for storage at –80 °C. Concentration was determined using the absorbance at 280 nm (NanoDrop, […]

[1] = target: T2, Lyn SH3 H78A and H96A double mutant (Homo sapiens, UniProt P07948, H78A/H96A); test: Binding to Lyn SH3 H78A and H96A double mutant
T2 construct: The lyn SH3 domain was amplified by PCR using Phusion DNA polymerase; GST (N, cleaved yes); made in house; host or cells: E. coli BL21 (DE3)
Procedure: as §1, §2, §3, §4, §5, §6, §7, §8, §9, §10

Lyn SH3 H96A mutant = target: T3, Lyn SH3 H96A mutant (Homo sapiens, UniProt P07948, H96A); test: Binding to Lyn SH3 H96A mutant
T3 construct: The lyn SH3 domain was amplified by PCR using Phusion DNA polymerase; GST (N, cleaved yes); made in house; host or cells: E. coli BL21 (DE3)
Procedure: as §1, §2, §3, §4, §5, §6, §7, §8, §9, §10

T2 sequence (P07948 63-123 H78A/H96A limits assumed): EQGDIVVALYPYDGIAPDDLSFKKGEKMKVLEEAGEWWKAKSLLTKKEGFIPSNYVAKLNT
T1 sequence (P07948 63-123 H78A limits assumed): as the sequence (P07948 63-123 H78A/H96A limits assumed) above, with A34H counted along it
T3 sequence (P07948 63-123 H96A limits assumed): as the sequence (P07948 63-123 H78A/H96A limits assumed) above, with A16H counted along it

| Kd (Lyn SH3 H78A mutant) [nM] | Kd [1] [µM] | Kd (Lyn SH3 H96A mutant) [nM] | Substance |
| --- | --- | --- | --- |
| 20 | – | – | AcVELARRPLPPLPN-NH2 (Ac-VE(Rh2(OAc)3)LARRPLPPLPN-NH2; also: metal complex: Glu2 carboxylate bound to dirhodium(II) triacetate) [S2E^Rh, rhodium(II) metallopeptide made from S2E peptide (Ac…-NH2) and Rh2(tfa)(OAc)3] |
| – | > 5 | 39 | AcVELARRPLPPLPN-NH2 (Ac-VELARRPLPPLPN-NH2; also: Glu2 side-chain carboxylate bound to Rh2(OAc)3) [S2E^Rh, rhodium(II) metallopeptide made from S2E peptide (Ac…-NH2) and Rh2(tfa)(OAc)3] |
